Measured values from patent publication US9694061B2, “Fully human antibodies to high molecular weight-melanoma associated antigen and uses thereof” (University of Pittsburgh—Of the Commonwealth System of …, priority 2008, dated 2017).

Experiments:
HMW-MAA [1] = experiment: ELISA of soluble scFv antibodies with cell lines; type: binding, human; details: soluble scFv clones isolated by panning with Colo38 cells
Protocol: FIG. 1. Selective reactivity in ELISA of soluble scFv C21 with HMW-MAA^+ human cell lines. […] Binding of scFv fragments was detected using SA-HRP. Results are expressed as absorbance at 490 nm. Human anti-anti-id scFv #119 ( ? ) was used as a specificity control.
The ELISA to test the reactivity of soluble scFv antibodies with synthetic peptides and melanoma cells and of mouse immune sera with melanoma cells and with peptides was performed as described (Desai et al., Cancer Res 58:2417-2425, 1998; Desai et al., J Immunol 165:3275-3283, 2000; Matsui et al., J Immunol 139:2088-2095, 1987). Results are expressed as absorbance of optical density (O.D.) at 450 nm. The competition assay to map the antigenic determinant recognized by scFv C21 was performed by mixing biotinylated scFv C21 (0.25 μg/well) with two-fold dilutions of mouse mAb or scFv PP or by mixing biotinylated mAb (at an optimal amount giving absorbance, measured at 450 nm of 1.0) with two fold dilutions of scFv PP. […] Binding of biotinylated scFv antibodies and biotinylated mAb to target cells was measured by sequential incubation with SA-HRP and substrate as described (Noronha et al., J Immunol 161:2968-2976, 1998). The results are expressed as percent inhibition by mAb, scFv or peptide (competitor or inhibitor) of scFv or mAb binding to HMW-MAA^+ cells. […]

HMW-MAA [2] = target: T1, HMW-MAA (Homo sapiens, UniProt Q6UVK1); experiment: Indirect immunoprecipitation and SDS-PAGE from labeled Colo38 cell lysate; type: binding
T1 sequence (Q6UVK1 30-2322): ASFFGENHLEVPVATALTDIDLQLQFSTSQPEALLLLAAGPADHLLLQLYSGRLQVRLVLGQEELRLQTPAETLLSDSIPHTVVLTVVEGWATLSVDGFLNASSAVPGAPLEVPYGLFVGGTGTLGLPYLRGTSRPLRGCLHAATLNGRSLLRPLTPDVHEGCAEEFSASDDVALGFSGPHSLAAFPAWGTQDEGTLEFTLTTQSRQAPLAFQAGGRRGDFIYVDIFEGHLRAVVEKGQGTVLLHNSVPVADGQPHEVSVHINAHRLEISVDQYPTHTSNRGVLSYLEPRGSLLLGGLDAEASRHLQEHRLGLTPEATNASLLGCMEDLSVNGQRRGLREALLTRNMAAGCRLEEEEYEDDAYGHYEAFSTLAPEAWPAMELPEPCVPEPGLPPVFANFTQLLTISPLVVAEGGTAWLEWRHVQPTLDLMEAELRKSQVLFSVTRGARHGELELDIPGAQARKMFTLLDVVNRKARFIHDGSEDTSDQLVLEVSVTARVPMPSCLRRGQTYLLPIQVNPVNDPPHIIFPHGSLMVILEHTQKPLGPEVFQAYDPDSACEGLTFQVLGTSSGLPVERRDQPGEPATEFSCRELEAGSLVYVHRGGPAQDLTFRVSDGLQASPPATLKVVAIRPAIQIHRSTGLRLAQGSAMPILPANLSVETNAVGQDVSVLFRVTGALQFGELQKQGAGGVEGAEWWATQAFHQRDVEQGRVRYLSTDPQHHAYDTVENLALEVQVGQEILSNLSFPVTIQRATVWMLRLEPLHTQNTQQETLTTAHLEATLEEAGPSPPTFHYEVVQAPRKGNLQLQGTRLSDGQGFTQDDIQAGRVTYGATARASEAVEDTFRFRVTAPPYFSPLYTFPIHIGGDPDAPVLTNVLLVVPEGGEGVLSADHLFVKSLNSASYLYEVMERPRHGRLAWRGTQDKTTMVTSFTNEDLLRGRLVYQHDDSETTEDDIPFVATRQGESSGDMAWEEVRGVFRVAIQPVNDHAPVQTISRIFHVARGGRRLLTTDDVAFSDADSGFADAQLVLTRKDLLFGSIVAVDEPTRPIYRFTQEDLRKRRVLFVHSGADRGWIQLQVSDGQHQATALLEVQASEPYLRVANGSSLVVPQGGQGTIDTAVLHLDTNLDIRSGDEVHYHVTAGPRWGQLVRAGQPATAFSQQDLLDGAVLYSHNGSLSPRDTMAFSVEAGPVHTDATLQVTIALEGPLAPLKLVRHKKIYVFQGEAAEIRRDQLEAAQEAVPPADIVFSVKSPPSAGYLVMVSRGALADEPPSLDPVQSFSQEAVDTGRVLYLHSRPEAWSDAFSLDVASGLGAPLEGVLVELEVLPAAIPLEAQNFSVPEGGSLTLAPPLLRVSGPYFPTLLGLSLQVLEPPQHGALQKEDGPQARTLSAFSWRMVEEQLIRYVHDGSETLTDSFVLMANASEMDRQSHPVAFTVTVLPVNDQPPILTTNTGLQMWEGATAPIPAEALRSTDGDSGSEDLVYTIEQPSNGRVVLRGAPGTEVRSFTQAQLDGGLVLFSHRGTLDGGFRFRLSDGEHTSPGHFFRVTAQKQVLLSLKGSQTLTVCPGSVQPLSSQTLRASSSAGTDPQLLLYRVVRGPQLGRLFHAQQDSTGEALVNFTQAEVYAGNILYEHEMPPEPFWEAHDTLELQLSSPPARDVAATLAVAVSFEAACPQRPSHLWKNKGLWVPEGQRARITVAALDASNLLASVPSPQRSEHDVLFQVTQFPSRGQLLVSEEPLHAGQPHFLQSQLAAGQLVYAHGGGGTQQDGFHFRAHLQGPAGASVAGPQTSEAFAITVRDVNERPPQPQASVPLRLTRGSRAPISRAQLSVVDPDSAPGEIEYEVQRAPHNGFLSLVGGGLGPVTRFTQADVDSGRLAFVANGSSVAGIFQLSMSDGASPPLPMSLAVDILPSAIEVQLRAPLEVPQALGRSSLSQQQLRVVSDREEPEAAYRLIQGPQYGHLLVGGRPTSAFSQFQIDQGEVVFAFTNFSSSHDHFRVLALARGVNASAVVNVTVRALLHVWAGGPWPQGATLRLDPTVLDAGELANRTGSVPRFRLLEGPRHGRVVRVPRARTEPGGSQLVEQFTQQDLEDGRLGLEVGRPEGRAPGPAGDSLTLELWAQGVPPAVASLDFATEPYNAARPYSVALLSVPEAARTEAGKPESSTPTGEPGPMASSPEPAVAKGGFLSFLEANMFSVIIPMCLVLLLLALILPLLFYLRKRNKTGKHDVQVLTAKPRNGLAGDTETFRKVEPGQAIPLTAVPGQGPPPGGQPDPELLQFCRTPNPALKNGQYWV
Protocol: FIG. 3. Structural relationship between molecules recognized by scFv C21 and by HMW-MAA-specific mouse mAb 763.74 in a HMW-MAA^+ Colo38 cell lysate. A 1% NP-40 extract of ^125I-labeled Colo38 cells was immunodepleted with mAb 763.74. The immunodepleted cell extract was immunoprecipitated with insolubilized mAb 763.74 and scFv C21. Antigens were eluted and analyzed by SDS-PAGE in an 8% polyacrylamide gel. Gels were fixed, dried and autoradiographed for up to 1 day at −80° C. A 1% NP-40 extract of ^125I-labeled Colo38 cells immunodepleted with 100 kD MAA-specific mouse mAb 376.94 was used as a control.
FIG. 4. Role of N-linked glycosylation in the expression of the antigenic determinant recognized by scFv C21 on HMW-MAA isolated from a HMW-MAA^+ Colo38 cell extract. A 1% NP-40 extract of Colo38 cells labelled with ^35S-methionine in the presence of tunicamycin (0, 2 and 3 μg/ml,) was immunoprecipitated with scFv C21. Antigens were eluted from the immunoadsorbent and analyzed by SDS-PAGE in an 8% polyacrylamide gel. Gels were fixed, dried and processed for fluorography for up to three days at −80° C. using Hyperfilm-ECL. HMW-MAA-specific mouse mAb 763.74 was used as a control.
Labeling of cells with ^125Iodine (Na^125 I; Amersham) or with ^35S methionine (Trans-^35S-label, ICN Biochemicals, Costa Mesa, Calif.) in the presence of tunicamycin (Sigma Chemical Co.) was performed as described (Noronha et al., J Immunol 161:2968-2976, 1998; Desai et al., J Immunol 165:3275-3283, 2000). Solubilization of labelled cells, immunoprecipitation, SDS-PAGE, autoradiography and fluorography were performed as described (Desai et al., Cancer Res 58:2417-2425, 1998) except for the use of Gammon Bind plus sepharose (Amersham) instead of protein A coated with rabbit anti-mouse IgG antibodies.

HMW-MAA [3] = target: T1, HMW-MAA; experiment: Flow cytometry of M14/HMW-MAA transfectants and parental M14 cells stained with scFv; type: binding; design: from tissue; host or cells: human nevi, primary and metastatic melanoma lesions (frozen sections)
Protocol: FIG. 2. Flow cytometry analysis of HMW-MAA^+ M14#5/HMW-MAA melanoma cells stained with scFv C21. M14#5/HMW-MAA transfectants and parental HMW-MAA^− M14#5 cells were incubated on ice with PP scFv C21 and mAb 9E10 (empty histogram) and control PP scFv 119 and mAb 9E10 (grey histogram) (top panel), with HMW-MAA-specific mouse mAb 763.74 (0.5 μg) (empty histogram) and control mAb MK2-23 (grey histogram) (middle panel) and with HLA class I antigen-specific mAb TP25.99 (empty histogram) and control mAb MK2-23 (grey histogram) (bottom panel). Binding of antibodies was detected using RPE-labeled F(ab′)2 fragments of goat anti-mouse Ig antibodies. Cells were analyzed with a FACScan™ flow cytometer. Results are expressed as fluorescence intensity.
Flow cytometry analysis of melanoma cells stained with scFv antibodies or antibodies in immune sera was performed as described (Wang et al., J Immunol Methods 294:23-35, 2004, herein incorporated by reference). […] Following two washes, cells were fixed in 2% formaldehyde and analyzed with a FACScan™ flow cytometer (BD Biosciences, San Jose, Calif.). A total of 10,000 cells were counted using a forward and side scatter gate to eliminate aggregates and debris for each sample. Results are expressed as relative fluorescence intensity.

B1: scFv C21: HMW-MAA-specific fully human scFv from semi-synthetic phage display library; VH SEQ ID NO: 5, VL SEQ ID NO: 6 (antibody, listed as Homo sapiens, V domains shown)
VH: QVQLVQSGAEVKKPGSSVKVSCKASGGTFSSYAISWVRQAPGQGLEWMGGIIPIFGTANYAQKFQGRVTITADESTSTAYMELSSLRSDDTAVYYCARALDPITFDSWGQGTLVTVSR
VL: SELTQDPAVSVALGQTVRITCQGDSLRSYYASWYQQKPGQAPVLVIYGKNNRPSGIPDRFSGSSSGNTASLTITGAQAEDEADYYCNSRDSSGNHVVFGGGTKLTVLGRS
modifications: scFv linker
Reactivity in ELISA with Colo38, FF2376 fibroblasts and T24 bladder carcinoma cells (HMW-MAA [1]): selective reactivity with Colo38 cells
Effect of immunodepletion of Colo38 cell lysate with scFv C21 on components immunoprecipitated by mAb 763.74 (HMW-MAA [2]): removed most, but not all the components immunoprecipitated by mAb 763.74
Immunoprecipitation from 125I labeled Colo38 cells (HMW-MAA [2]): immunoprecipitated two components with the characteristic elecrophoretic profile of HMW-MAA components
Intensity of HMW-MAA components immunoprecipitated from Colo38 cells labeled in the presence of tunicamycin (HMW-MAA [2]; 35S-methionine labeling, N-glycosylation inhibitor tunicamycin): marked reduction in the intensity of the HMW-MAA components immunoprecipitated
Immunoprecipitation from Colo38 cell lysate immunodepleted with mAb 763.74 (HMW-MAA [2]; sequential immunoprecipitation): did not immunoprecipitate any components
Immunoprecipitation from Colo38 cell lysate immunodepleted with 100KD MAA-specific mAb 376.96 (HMW-MAA [2]; specificity control of immunodepletion): immunoprecipitated the HMW-MAA components
Flow cytometry staining of HMW-MAA transfected M14 cells (HMW-MAA [3]; M14 cells stably transfected with full length HMW-MAA): stained M14 cells which express HMW-MAA
Flow cytometry staining of parental M14 cells (HMW-MAA [3]; parental M14 cells, do not express HMW-MAA): did not stain the parental M14 cells
